This is an account of results in patent US20230270875A1, “METHODS OF USING ANTI-CD79B IMMUNOCONJUGATES” (Genentech, Inc., priority 2020, published 2023).

One data set has as its system patients with R/R NHL. To be noted: human, in vivo; cited from earlier work.
The subject of data set [1] is patients with relapsed or refractory follicular lymphoma (R/R FL). Description: Phase Ib/II study, FL dose-escalation phase: safety (adverse events, DLTs, RP2D) of G+Pola+V. The data set is classed as in vivo. As to conditions: in combination with venetoclax 800 mg and obinutuzumab 1000 mg. The text has this: This Example describes a Phase Ib/II study evaluating the safety and efficacy of obinutuzumab (G) in combination with polatuzumab vedotin (Pola) and venetoclax (V) in patients with relapsed or refractory follicular lymphoma (R/R FL) and rituximab (R) in combination with polatuzumab vedotin and venetoclax in patients with relapsed or refractory diffuse large B-cell lymphoma (R/R DLBCL).
This Phase Ib/II, open-label, multicenter, non-randomized study evaluated the safety, efficacy, and pharmacokinetics of obinutuzumab (G)+Polatuzumab vedotin (Pola)+venetoclax (V) in patients with R/R FL and rituximab (R)+Pola+V in patients with R/R DLBCL.
This dose-escalation phase included FL patients only.
All patients enrolled in the dose-escalation phase received induction treatment, administered in 21-day cycles as shown in Table 1. […]
The observation period was based on evaluation of dose-limiting toxicities (DLTs) in cycle 1. […] If no additional DLTs were reported, the next dose could be evaluated. […]
Adverse events are assessed according to the adverse event severity grading scale for the NCI CTCAE (v4.0). […]
Laboratory assessments and adverse events (AEs) were assessed throughout the study, with complete blood counts performed on days 1, 8, and 15 of cycle 1, on day 1 of cycles 2-6, and monthly during maintenance treatment. […]

On to obinutuzumab, for which the “Incidence of Grade 3-4 neutropenia” value in the data set with patients with R/R NHL is 5%.

On to “polatuzumab vedotin: anti-CD79b immunoconjugate, CAS Registry Number 1313206-42-6; humanized antibody conjugated to MMAE via mc-val-cit-PABC linker”, for which the “Recommended Phase II dose (RP2D)” value in data set [1] was determined as 1.8 mg/kg.
